A450 data for five molecules are collected here from patent US20260015426A1.

Where a chain is given by its changes, count along the chain named.

Common to all, as to assay: ELISA, mAb at 10 nM
Background: In an ELISA, binding on a coated surface is turned into a signal by an enzyme label.

Test [1] addresses hu-M-IL1RAP-D1 construct, positions S21-Q133 (human).
The target of test [2] is hu-M-IL1RAP-D3 construct, positions K238-T367 (human).
The target in test [3] is hu-M-IL1RAP-D1D2 construct, positions S21-P237 (human).
Chain of hu-M-IL1RAP-D1D2 construct, positions S21-P237 (human) (chain, as listed by the source limits assumed): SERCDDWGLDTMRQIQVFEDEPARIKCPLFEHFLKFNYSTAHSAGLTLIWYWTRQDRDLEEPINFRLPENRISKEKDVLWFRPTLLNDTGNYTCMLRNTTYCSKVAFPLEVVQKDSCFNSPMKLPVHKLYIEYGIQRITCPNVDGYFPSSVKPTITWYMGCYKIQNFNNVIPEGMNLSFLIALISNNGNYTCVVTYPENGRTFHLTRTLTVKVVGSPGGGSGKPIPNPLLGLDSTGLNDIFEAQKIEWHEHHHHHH

Chain of hu-M-IL1RAP-D1 construct, positions S21-Q133 (human) (chain, as listed by the source limits assumed): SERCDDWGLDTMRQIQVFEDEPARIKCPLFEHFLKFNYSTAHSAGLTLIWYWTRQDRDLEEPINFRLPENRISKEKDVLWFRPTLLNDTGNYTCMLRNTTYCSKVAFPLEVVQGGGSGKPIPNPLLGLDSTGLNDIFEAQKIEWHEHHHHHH
Chain of hu-M-IL1RAP-D3 construct, positions K238-T367 (human) (chain, as listed by the source limits assumed): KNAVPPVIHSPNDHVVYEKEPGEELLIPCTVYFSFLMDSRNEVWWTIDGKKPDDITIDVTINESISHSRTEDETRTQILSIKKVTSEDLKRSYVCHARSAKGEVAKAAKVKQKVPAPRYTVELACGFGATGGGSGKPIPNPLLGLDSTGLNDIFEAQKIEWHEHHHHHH

B1: 8H1 (purified mAb from hybridoma 8H1) (antibody, V domains shown)
VH: QVQLQQSGPELVKSGASVRISCKASGYAFSGSWMNWVKQRPGKGLEWIGRIYPGDGNTNYNGKFKDKATLTADKSSSTAFMQLSSLTSEDSAVYFCARDYYLFYFDYWGQGTTLTVSS
VL: NIVMTQTPKFLPVAAEDRVIITCKASQDVSNEVAWYQQKPGQSPKLLMYYASNRYTGVPDRFTGSGSGTDFTFTISSVQVEDLAVYFCQQHYSSPLTFGAGTKLELK
Regarding B1, the A450 in test [1] and in test [2] was 0.045 A450 in each case.

B2: 9D5 (purified mAb from hybridoma 9D5) (antibody, V domains shown)
VH: QVQLQQSGAELARPGASVKFSCKASGYTFTSYWMQWVKQRPGQGLEWIGTIYPGDGNTRYTQKFKGKATLTADKSSSTAYMQLSGLASEDSAVYYCARGYFGNLVFDVWGAGTTVTVSS
VL: DIKMTQSPSSMYASLGERVTITCKASQDINTYLSWFLQKPGKSPKTLIYRADRLVDGVPSRFSGGGSGQDYSLTISSLEYEDLGIYYCLQYDEFPYTFGSGTKLEIK
For B2, the A450 is 0.047 A450 in test [1] and 0.045 A450 in test [2].

B3: 10A11 (purified mAb from hybridoma 10A11) (antibody, V domains shown)
VH: EVQLQQSGAELVKPGASVRLSCTSSGFNIKDYFMHWVKQRTEQGLEWVGRIDPEDGETQYAPNFQDKATITVDTSSNTVYLQLSSLTSEDTAVYYCFRPLYYGNSPWFAYWGQGTLVTVSP
VL: DIQMTQTTSSLSASLGDRVTISCRASQDISNYLNWYQQKPDGTVKLLIYYTSTLHSGVPSRFSGSGSGTDYSLTISNLEPEDIATYYCHQYSKFPPTFGSGTKLEIK
Turning to B3, the A450 in test [1] and in test [3] was 0.046 A450 throughout.

B4: 11C5(Hy) (purified mAb from the 11C5 hybridoma) (antibody, V domains shown)
VH: EVQLVESGGGLVKPGGSLKLSCAASGFTFSNYAMSWVRQTPEKRLEWVATVTEGGDYNYCLDDVKGRFTISRDNANDNLYLQMSHLKSEDSARYYCARDRWPYFFDYWGQGTTLTVSS
VL: DIQMTQSPASLSVSVGETVTITCRASENIYSNLAWYQQKQGRSPQLLVYGAKNLADGVPSRFSGSGSGTQYSLNINSLQSEDFGTYYCQHFWTTPRTFGGGTKLEIK
Turning to B4, the A450 in test [1] and in test [3] was 0.048 A450 throughout.

B5: 13D8 (purified mAb from hybridoma 13D8) (antibody, V domains shown)
VH: EVQLVESGGGLVKPGGSLKLSCTASGFTFSNYAMSWVRQTPEKRLEWVATISDGGNYTYYPDNVKGRFTISRDIAKNNLYLQMSHLKSEDTAMYYCARDRWPYFFDFWGQGTTLTVSS
VL: B4 VL with E27D, Q38E, R42K, K52T, N74K, T85S, T97S, I106L
On to B5, for which the A450 came to 0.046 A450 in test [1] and 0.044 A450 in test [3].
